This passage reports Kd results from US20260258115A1 (MAPP BIOPHARMACEUTICAL, published 2026).

To fix the notation:
B1: ADI-14402 (antibody, V domains shown)
VH: QVQLVQSGAEVKKPGASVKVSCKTSGYTFTNYGISWVRQAPGQGLEWMGWISAYNGNRNYAQKLQGRVTMTTDTSTSTAYMELRSLRSDDTAVYYCAREPPVIAAGDFSHWGQGTLVTVSS
VL: EIVLTQSPLSLPVTLGQPASISCRSSQSLVHSDANTYLSWFQQRPGQSPRRLIYKVSNRDSGVPDRFSGSGSGTDFTLKISRVEAEDVGVYYCMQGTHWPPDFGQGTRLEIK
notes: also called Ab 68
B2: ADI-14585 (antibody, V domains shown)
VH: QVQLVQSGAEVKKPGASVKVSCKASGYTFANYGIGWVRQAPGQGLEWMGWISAYNGKTNYAQKFQGRVTMTTDTSTSTAYMELRSLRSDDTAVYYCAREPPVIAAGDFPHWGQGTLVTVSS
VL: ETTLTQSPLSLPVTLGQPASISCRSSQSLEHSDLNTYLSWFQQRPGQSPRRLIYKVSNRDSGVPDRFSGSGSGTDFTLRISRVEAEDVGVYYCMQGTHWPPDFGQGTRLEIK
B3: ADI-14424 (antibody, V domains shown)
VH: QVQLVQSGAEVKKPGESLKISCKGPDSSFSVYWIAWVRQMPGKGLEWMGVIYVGDSDTRYSPSFRGQVTISADKSMNTAYLQWSSLKASDTAMYFCARHIPPGPFDLWGQGTMVTVSS
VL: NFMLTQPHSVSASPGKTITISCTRSSGSIASNSVQWYQQRPGSAPTNVIYEDDQRPLGVPNRFSGSIDSSSNSASLTISGLKTEDEADYYCHSYHNSDQVFGGGTKLTVL
notes: also called Ab 90
B4: ADI-14582 (antibody, V domains shown)
VH: QVQLVQSGAEVKKPGESLKISCKGPDSSFSVYWIAWVRQMPGKGLEWMGVIYVGDSDTRYSPSFRGQVTISADKSINTAYLQWSSLKASDTAMYFCARHIPPGPFDLWGQGTTVTVSS
VL: NFMLTQPHSVSASPGKTITISCTRSSGSIASNSVQWYQQRPGSAPTNVIYEDNQRPLGVPNRFSGSIDSSSNSASLTISGLKTEDEADYYCQSYHSSDQVFGGGTKVTVL
B5: ADI-14428 (antibody, V domains shown)
VH: EVQLLESGGGLVKPGGSLRLSCAASGFTFSDHYMSWIRQAPGKGLEWVSYISSTSSFTNYADSLKGRFTISRDNAKNSLYLQMNSLRAEDTAVYYCARPYIVALGTRAFDIWGQGTTVTVSS
VL: SYVLTQPPSVSVAPGKTARITCGGNNIGSKTVHWYQQKPGQAPVLVSYYDSDRPSGIPERFSGSNSGNTATLTISRVEAGDEADYYCQVWDGSSEHYVFGTGTKVTVL
notes: also called Ab 94
B6: ADI-14403 (antibody, V domains shown)
VH: QVQLVESGGGLGKPGGSLRLSCAASGFTFSGYYMSWIRQAPGKGLEWVSDISSGSSFTNYADSVKGRFTISRDNAKNSLYLQMNSLKAEDTAVYYCARVPPDSYGSGSYSGDSWGQGTLVTVSS
VL: QSVVTQPPSVSGAPGQRVTISCTGSSSNIGAGYGVHWYQQLPGTAPKLLIYGNTNRPSGVPDRISGSKSGTSASLVITGLQAEDEADYYCQSYDSSLSGWVFGGGTKLTVL
notes: also called Ab 69
B7: ADI-14580 (antibody, V domains shown)
VH: QVQLVQSGAEVKKPGSSVKVSCKASGGTFSSYTINWVRQAPGQGLEWMGRIIPVLGMASYVQNFQGRVSITADESTSTAYMELSSLTSEDTALYYCAKGAVAAANDVFDVWGQGTTVTVSS
VL: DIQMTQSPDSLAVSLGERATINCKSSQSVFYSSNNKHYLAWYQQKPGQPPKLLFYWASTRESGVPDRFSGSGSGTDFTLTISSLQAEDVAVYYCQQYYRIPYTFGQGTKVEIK
B8: ADI-14412 (antibody, V domains shown)
VH: QVQLVQSGAEVKKPGASVKVSCKASGYTFTRYGISWVRQAPGQGLEWMGWISDYNGNTKNAEKFQGRVTMTTDTYTNIAYMELRSLRSDDTAVYYCARDWWITVGGIIAPFDYWGQGTLVTVSS
VL: ETTLTQSPGTLSLSPGERATLSCRASQSVSSDYLAWFQQKPGQAPRLLIYGASSRATDIPDRFSGSGSGTDFTLTISRLESEDFAVYYCLHYAGARTFGQGTKVEIK
notes: also called Ab 78
B9: ADI-14581 (antibody, V domains shown)
VH: QVQLVQSGAEVKKPGSSVKVSCKASGGTFSSHAFSWVRQAPGQGLEWMGGIIPSLNTANYAQKFQGRVSITADESTGTAYMELSSLRSDDTAVYFCAREVFGYGYYFDYWGQGTLVTVSS
VL: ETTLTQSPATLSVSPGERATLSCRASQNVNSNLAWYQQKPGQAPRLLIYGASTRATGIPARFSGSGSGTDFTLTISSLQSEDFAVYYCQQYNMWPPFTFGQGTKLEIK
notes: also called Ab 110
B10: ADI-24841 (antibody, V domains shown)
VH: QVQLVQSGAEVKKPGASVKVSCKASGYTFTSYAMHWVRQAPGQRLEWMGWINAGNGNTKYSQKFQGRVTITRDTSASTAYMELSSLRSEDTAVYYCARDGFPTNYDFWSGYSDDAFDIWGQGTMVTVSS
VL: not shown
notes: full-length IgG
B11: ADI-24798 (antibody, V domains shown)
VH: EVQLLESGPGLVKPSETLSLTCTVSGGSISSYYWSWIRQPPGKGLEWIGYIYYSGSTNYNPSLKSRVTISVDTSKNQFSLKLSSVTAADTAVYYCARILGHCSGGSCYRIIDYWGQGTLVTVSS
VL: not shown
notes: full-length IgG
B12: ADI-25518 (antibody, V domains shown)
VH: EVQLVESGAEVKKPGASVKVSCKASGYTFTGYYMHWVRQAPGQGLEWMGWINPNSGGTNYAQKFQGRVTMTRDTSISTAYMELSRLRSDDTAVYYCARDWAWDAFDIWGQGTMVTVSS
VL: QSVLIQPASVSGSPGQSITISCTGTSSDVGGYNYVSWYQQHPGKAPKLMIYDVSNRPSGVSNRFSGSKSGNTASLTISGLQAEDEADYYCSSYTSSSTLVFGGGTQLTVL
notes: full-length IgG
B13: ADI-25491 (antibody, V domains shown)
VH: EVQLLESGPGLVKPSQTLSLTCTVSGGSISSGGYYWSWIRQHPGKGLEWIGYIYYSGSTYYNPSLKSRVTISVDTSKNQFSLKLSSVTAADTAVYYCAREVVPAAIRAGYYFDYWGQGTLVTVSS
VL: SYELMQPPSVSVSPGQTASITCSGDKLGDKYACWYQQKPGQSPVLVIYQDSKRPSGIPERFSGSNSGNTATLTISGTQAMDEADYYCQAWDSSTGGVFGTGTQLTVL
notes: full-length IgG
B14: ADI-14363 (antibody, V domains shown)
VH: QVQLVESGGGLVKPGGSLRLSCAASGFTFSDYYMSWIRQAPGKGLEWVSYISGGGTYTKYADSVKGRFTISRDNAKNSVYLQMNSLRAEDTAVYYCARDVALVGWELRYGMDVWGQGTTVTVSS
VL: ETTLTQSPGTLSLSPGERATLSCRARENVNSSYLAWYQQKPGQAPRLLIYGASSRATGIPDRFSGSGSGTDFTLTISRLEPEDFAVYYCQQYAISPWTFGQGTKVEIK
notes: full-length IgG; also called Ab 31
B15: ADI-24854 (antibody, V domains shown)
VH: EVQLVESGGGLVKPGGSLRLSCAASGFTFSSYSMNWVRQAPGKGLEWVSSISSSSSYIYYADSVKGRFTISRDNAKNSLYLQMNSLRAEDTAVYYCARDRRFGELFYFDYWGQGTLVTVSS
VL: QSVLTQPPSVSGAPGQRVTISCTGSSSNIGAGYDVHWYQQLPGTAPKLLIYGNSNRPSGVPDRFSGSKSGTSASLAITGLQAEDEADYYCQSYDSSLSGNWVFGGGTKLTVL
notes: full-length IgG
B16: ADI-14380 (antibody, V domains shown)
VH: QVQLVQSGAEVKKPGESLKISCKGSGYTFTSYWIGWVRQLPGKGLEWMGVIFPGDSDTRYSPSFQGQVTISADKSISTAYLQWSSLKAADTAMYYCARTRLGRGFYRFDSWGQGTLVTVSS
VL: QSVLTQPPSVSAAPGQKVTISCSGSSSNIGNNYVSWYQQLPGTAPRLLIYENNERPSGIPDRFSGSKSGTSATLGITGLQTGDEADYYCATWDSGLSAGYVFGTGTKLTVL
notes: full-length IgG; also called Ab 48
B17: ADI-22756 (antibody, V domains shown)
VH: EVQLLESGGGVVQPGRSLRLSCVASGFTFSTYGVHWVRQAPGKGLEWVAVISYDGANKDYADSVKGRFTISRDNSKNTLYLQMNSLRAEDTAVYYCAKMITRVLPGGFDRWGQGTLVTVSS
VL: EIVMTQSPGTLSLSPGERATLSCRASQSVSSAYLAWYQQKPGQAPRLLIYDASRRATGIPDRFSGSGSGTDFTLTISRLEPEDFAVYYCQQYGSSRFTFGQGTKVEIK
notes: full-length IgG

As usually defined, the Kd is the equilibrium constant for the complex coming apart.

One assay concerns the target RSV prefusion F (preF), subtype B (respiratory syncytial virus, subtype B). In words: BLI, IgG. On the technique in general: Biolayer interferometry detects binding as a change in optical thickness at a sensor tip.
As for B1, the affinity, expressed as Kd, was 0.416 nM.

B2 returned a Kd of 0.449 nM. On the same count and under the same terms, to B3 belongs 1.9 nM. B4 yielded a Kd of 1.81 nM. Regarding B5, binding was characterised by a dissociation constant (Kd) of 14.1 nM. Take B6: the Kd was determined as 0.699 nM. Same read-out and setting: the figure for B7 is 4.54 nM. With B8, the equilibrium dissociation constant (Kd) was found to be 13.4 nM. On the same count and under the same terms, the figure for B9 is 2.88 nM.

The target in a further assay is T1, RSV prefusion F (preF), subtype B (respiratory syncytial virus subtype B).
T1 construct: also called Prefusion subtype B
In words: BLI, IgG.
B10 displayed a Kd of 26.6 nM. On the same count and under the same terms, to B11 belongs 5.27 nM. Turning to B12, the Kd stood at 39.5 nM.

The molecule B13 gave a Kd of 21.9 nM. On the same count and under the same terms, to B14 belongs 5.35 nM; to B15, 30.3 nM; to B16, 10.8 nM. B17 yielded an equilibrium dissociation constant (Kd) of 55.8 nM.
